“And” between values parts separate entries of the source, which are not always exact repeats. Equal values may be shown once.
Assays:
[1] = system: UT5600 cells (NTR−) lysogens; assay: Replica-plate screening of mutant NTR-expressing lysogens on increasing CB1954 (growth score); assay type: cell-based, E. coli; parameters: key to Score: 0: Good growth on all concentrations of CB 1954 = vector; Good growth on 100 and 200, faint on 300, ring of growth on 400 μM; Good growth on 100 and 200, ring growth on 300, none or very faint on 400 μM; Good growth on 100, faint to good on 200, none or very faint on 300 and 400 μM; 4: Good growth on 100 μM, none to ring growth on 200 μM = wild type; Good growth on 50 μM, ring on 100 μM, none on 200, 300 or 400 μM; 6: Faint growth on 50 μM, ring on 100 μM; 7: Good growth on 50 μM, none on 100 μM; 8: Ring growth on 50 μM, none on 100 μM; 9: None or very faint growth on 50 μM, none on 100 μM; 10: None or ring growth on 35 μM; conditions: for Score: growth of lysogens on agar with kanamycin, IPTG and 0-400 μM CB1954, wild type = 4, higher = more sensitive
Description: The ligation mix was packaged (Stratagene) into lambda bacteriophage particles that were used to infect UT5600 cells (NTR ^−). As a control wild type NTR was also cloned into this vector (JG16C2). Kanamycin resistant lysogens were selected on agar plates ([…] kanamycin) then individually grown overnight in a well of a 96-well plate in LB+Kanamycin. The clones were replica plated on to a series of plates containing Tris-buffered (50 mM, pH 7.5) LB agar with kanamycin, IPTG (0.1 mM) and CB1954 at a concentration of 0, 25, 35, 50, 100, 200, 300 or 400 μM (see FIG. 3). […]

[2] = system: UT5600 cells (NTR−) lysogens; assay: Survival curve (colony count) IC50 of CB1954 in NTR-expressing lysogens; assay type: cell-based, E. coli; conditions: concentration of CB1954 giving 50% reduction in colony number after 36h growth; lysogen expressing the named NTR
Description: To quantify the improvement in NTR activity in the clones in a less subjective way, a few clones were selected for further study by determining their survival curves. The lysogens were grown overnight in LB +kanamycin and diluted to approximately 1 cell per μl based on the OD. In duplicate, 100 μl diluted cells were plated into Tris-buffered LB plates containing kanamycin, IPTG and 0-400 μM CB1954. After 36h growth the number of colonies on each plate were counted and expressed as a percentage of the number present on the plates with no CB1954. Survival curves showing % survival versus concentration of CB 1954 were plotted (see examples in FIG. 7) and the IC50 determined as the concentration of CB 1954 which kills gives a 50% reduction in colony number (Table 3 and FIG. 8). A few clones containing mutations resulting in an enhanced sensitivity to CB 1954 were selected for further study.

B1: F124M (protein)
chain: MDIISVALKRHSTKAFDASKKLTPEQAEQIKTLLQYSPSSTNSQPWHFIVASTEEGKARVAKSAAGNYVFNERKMLDASHVVVFCAKTAMDDVWLKLVVDQEDADGRFATPEAKAANDKGRKFMADMHRKDLHDDAEWMAKQVYLNVGNFLLGVAALGLDAVPIEGFDAAILDAEFGLKEKGYTSLVVVPVGHHSVEDFNATLPKSRLPQNITLTEV
[1]
  nitroreductase activity with CB1954 compared with wild-type: substantially greater activity with CB 1954 than the wild-type
  Score: 9
[2]
  IC50: 33 µM

B2: F124Q (protein)
chain: MDIISVALKRHSTKAFDASKKLTPEQAEQIKTLLQYSPSSTNSQPWHFIVASTEEGKARVAKSAAGNYVFNERKMLDASHVVVFCAKTAMDDVWLKLVVDQEDADGRFATPEAKAANDKGRKFQADMHRKDLHDDAEWMAKQVYLNVGNFLLGVAALGLDAVPIEGFDAAILDAEFGLKEKGYTSLVVVPVGHHSVEDFNATLPKSRLPQNITLTEV
[1]
  nitroreductase activity with CB1954 compared with wild-type: substantially greater activity with CB 1954 than the wild-type
  Score: 8
[2]
  IC50: 39 µM

B3: Y68A (protein)
chain: MDIISVALKRHSTKAFDASKKLTPEQAEQIKTLLQYSPSSTNSQPWHFIVASTEEGKARVAKSAAGNAVFNERKMLDASHVVVFCAKTAMDDVWLKLVVDQEDADGRFATPEAKAANDKGRKFFADMHRKDLHDDAEWMAKQVYLNVGNFLLGVAALGLDAVPIEGFDAAILDAEFGLKEKGYTSLVVVPVGHHSVEDFNATLPKSRLPQNITLTEV
[1]
  Score: 5-7
[2]
  IC50: 81 µM

B4: F124A (protein)
chain: MDIISVALKRHSTKAFDASKKLTPEQAEQIKTLLQYSPSSTNSQPWHFIVASTEEGKARVAKSAAGNYVFNERKMLDASHVVVFCAKTAMDDVWLKLVVDQEDADGRFATPEAKAANDKGRKFAADMHRKDLHDDAEWMAKQVYLNVGNFLLGVAALGLDAVPIEGFDAAILDAEFGLKEKGYTSLVVVPVGHHSVEDFNATLPKSRLPQNITLTEV
[1]
  nitroreductase activity with CB1954 compared with wild-type: substantially greater activity with CB 1954 than the wild-type
  Score: 7-9
[2]
  IC50: 20 µM and 32 µM

B5: F124G (protein)
chain: MDIISVALKRHSTKAFDASKKLTPEQAEQIKTLLQYSPSSTNSQPWHFIVASTEEGKARVAKSAAGNYVFNERKMLDASHVVVFCAKTAMDDVWLKLVVDQEDADGRFATPEAKAANDKGRKFGADMHRKDLHDDAEWMAKQVYLNVGNFLLGVAALGLDAVPIEGFDAAILDAEFGLKEKGYTSLVVVPVGHHSVEDFNATLPKSRLPQNITLTEV
[1]
  nitroreductase activity with CB1954 compared with wild-type: substantially greater activity with CB 1954 than the wild-type
  Score: 7
[2]
  IC50: 49 µM

B6: F124T (protein)
chain: MDIISVALKRHSTKAFDASKKLTPEQAEQIKTLLQYSPSSTNSQPWHFIVASTEEGKARVAKSAAGNYVFNERKMLDASHVVVFCAKTAMDDVWLKLVVDQEDADGRFATPEAKAANDKGRKFTADMHRKDLHDDAEWMAKQVYLNVGNFLLGVAALGLDAVPIEGFDAAILDAEFGLKEKGYTSLVVVPVGHHSVEDFNATLPKSRLPQNITLTEV
[1]
  nitroreductase activity with CB1954 compared with wild-type: substantially greater activity with CB 1954 than the wild-type
  Score: 7-9 and 7-8
[2]
  IC50: 56 µM and 87 µM

B7: F124V (protein)
chain: MDIISVALKRHSTKAFDASKKLTPEQAEQIKTLLQYSPSSTNSQPWHFIVASTEEGKARVAKSAAGNYVFNERKMLDASHVVVFCAKTAMDDVWLKLVVDQEDADGRFATPEAKAANDKGRKFVADMHRKDLHDDAEWMAKQVYLNVGNFLLGVAALGLDAVPIEGFDAAILDAEFGLKEKGYTSLVVVPVGHHSVEDFNATLPKSRLPQNITLTEV
[1]
  nitroreductase activity with CB1954 compared with wild-type: substantially greater activity with CB 1954 than the wild-type
  Score: 7-9
[2]
  IC50: 37 µM and 53 µM

B8: Y68S (protein)
chain: MDIISVALKRHSTKAFDASKKLTPEQAEQIKTLLQYSPSSTNSQPWHFIVASTEEGKARVAKSAAGNSVFNERKMLDASHVVVFCAKTAMDDVWLKLVVDQEDADGRFATPEAKAANDKGRKFFADMHRKDLHDDAEWMAKQVYLNVGNFLLGVAALGLDAVPIEGFDAAILDAEFGLKEKGYTSLVVVPVGHHSVEDFNATLPKSRLPQNITLTEV
[1]
  Score: 5-7
[2]
  IC50: 96 µM

B9: Y68C (protein)
chain: MDIISVALKRHSTKAFDASKKLTPEQAEQIKTLLQYSPSSTNSQPWHFIVASTEEGKARVAKSAAGNCVFNERKMLDASHVVVFCAKTAMDDVWLKLVVDQEDADGRFATPEAKAANDKGRKFFADMHRKDLHDDAEWMAKQVYLNVGNFLLGVAALGLDAVPIEGFDAAILDAEFGLKEKGYTSLVVVPVGHHSVEDFNATLPKSRLPQNITLTEV
[1]
  Score: 5
[2]
  IC50: 105 µM

B10: F124S (protein)
chain: MDIISVALKRHSTKAFDASKKLTPEQAEQIKTLLQYSPSSTNSQPWHFIVASTEEGKARVAKSAAGNYVFNERKMLDASHVVVFCAKTAMDDVWLKLVVDQEDADGRFATPEAKAANDKGRKFSADMHRKDLHDDAEWMAKQVYLNVGNFLLGVAALGLDAVPIEGFDAAILDAEFGLKEKGYTSLVVVPVGHHSVEDFNATLPKSRLPQNITLTEV
[1]
  nitroreductase activity with CB1954 compared with wild-type: substantially greater activity with CB 1954 than the wild-type
  Score: 7-9
[2]
  IC50: 41 µM

B11: F124C (protein)
chain: MDIISVALKRHSTKAFDASKKLTPEQAEQIKTLLQYSPSSTNSQPWHFIVASTEEGKARVAKSAAGNYVFNERKMLDASHVVVFCAKTAMDDVWLKLVVDQEDADGRFATPEAKAANDKGRKFCADMHRKDLHDDAEWMAKQVYLNVGNFLLGVAALGLDAVPIEGFDAAILDAEFGLKEKGYTSLVVVPVGHHSVEDFNATLPKSRLPQNITLTEV
[1]
  nitroreductase activity with CB1954 compared with wild-type: substantially greater activity with CB 1954 than the wild-type
  Score: 7-9
[2]
  IC50: 36 µM

B12: F124Y (protein)
chain: MDIISVALKRHSTKAFDASKKLTPEQAEQIKTLLQYSPSSTNSQPWHFIVASTEEGKARVAKSAAGNYVFNERKMLDASHVVVFCAKTAMDDVWLKLVVDQEDADGRFATPEAKAANDKGRKFYADMHRKDLHDDAEWMAKQVYLNVGNFLLGVAALGLDAVPIEGFDAAILDAEFGLKEKGYTSLVVVPVGHHSVEDFNATLPKSRLPQNITLTEV
[1]
  nitroreductase activity with CB1954 compared with wild-type: substantially greater activity with CB 1954 than the wild-type
  Score: 5-7
[2]
  IC50: 66 µM

B13: F124W (protein)
chain: MDIISVALKRHSTKAFDASKKLTPEQAEQIKTLLQYSPSSTNSQPWHFIVASTEEGKARVAKSAAGNYVFNERKMLDASHVVVFCAKTAMDDVWLKLVVDQEDADGRFATPEAKAANDKGRKFWADMHRKDLHDDAEWMAKQVYLNVGNFLLGVAALGLDAVPIEGFDAAILDAEFGLKEKGYTSLVVVPVGHHSVEDFNATLPKSRLPQNITLTEV
[1]
  nitroreductase activity with CB1954 compared with wild-type: substantially greater activity with CB 1954 than the wild-type
  Score: 5-7
[2]
  IC50: 56 µM

Reference: US20050013808A1, “Nitroreductase enzymes” (priority 2001, published 2005)
